Reference: patent publication US20210395746, “COMPOSITIONS FOR […] TRANSCRIPTIONAL FEEDBACK CIRCUIT DISRUPTION AND USES […]” (The J. David Gladstone Institutes, a testamentary trust …, published 2021)

How the values were obtained:
[1] = target: T1, IE86 (IE2) C-terminal fragment (Human cytomegalovirus) (UniProt Q6SWP7); conditions: FPLC Superose 6; 20 mM HEPES pH 7.4, 250 mM NaCl, 1 mM DTT; most efficient length
T1 sequence: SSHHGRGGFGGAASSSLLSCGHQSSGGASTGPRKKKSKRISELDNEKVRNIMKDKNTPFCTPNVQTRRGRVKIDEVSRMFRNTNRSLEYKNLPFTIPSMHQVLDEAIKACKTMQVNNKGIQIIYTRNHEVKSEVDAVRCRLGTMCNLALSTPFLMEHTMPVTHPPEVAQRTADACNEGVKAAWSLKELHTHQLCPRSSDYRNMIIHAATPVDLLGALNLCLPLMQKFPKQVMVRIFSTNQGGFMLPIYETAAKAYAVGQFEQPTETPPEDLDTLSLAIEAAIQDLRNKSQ

[2] = target: T2, IE86 (IE2) full-length, minimal feedback circuit or virus-encoded (Human cytomegalovirus, UniProt P19893 P19893:1-580); assay: cell_activity; CMV C-DOT dose-response in 96-well format; indirect, decoy effect; conditions: tags: MIEP-IE86-IRES-GFP reporter or IE86-YFP virus; chain copies: 2
T2 sequence: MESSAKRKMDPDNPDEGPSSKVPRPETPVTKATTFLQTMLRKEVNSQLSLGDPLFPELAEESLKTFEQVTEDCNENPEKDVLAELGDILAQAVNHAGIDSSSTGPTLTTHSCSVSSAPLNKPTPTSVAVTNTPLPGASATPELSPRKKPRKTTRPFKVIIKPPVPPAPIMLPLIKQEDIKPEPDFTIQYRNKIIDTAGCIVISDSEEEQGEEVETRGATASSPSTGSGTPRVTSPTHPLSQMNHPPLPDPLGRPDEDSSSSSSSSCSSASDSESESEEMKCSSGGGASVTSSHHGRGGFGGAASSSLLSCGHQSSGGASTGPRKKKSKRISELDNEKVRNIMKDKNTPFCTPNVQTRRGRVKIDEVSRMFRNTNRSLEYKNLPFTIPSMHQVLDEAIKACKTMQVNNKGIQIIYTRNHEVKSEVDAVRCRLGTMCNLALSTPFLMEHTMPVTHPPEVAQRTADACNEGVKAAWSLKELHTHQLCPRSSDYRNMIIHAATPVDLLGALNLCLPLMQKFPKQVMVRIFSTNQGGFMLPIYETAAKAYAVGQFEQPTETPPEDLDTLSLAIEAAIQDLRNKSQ

[3] = target: T3, IE175 (ICP4) (Herpes simplex virus type 1, UniProt P08392 P08392:1-1298); assay: cell_activity; HSV-1 C-DOT dose-response in 96-well format; indirect, decoy effect; conditions: tags: YFP fusion, strain 17syn+; chain copies: 2
T3 sequence: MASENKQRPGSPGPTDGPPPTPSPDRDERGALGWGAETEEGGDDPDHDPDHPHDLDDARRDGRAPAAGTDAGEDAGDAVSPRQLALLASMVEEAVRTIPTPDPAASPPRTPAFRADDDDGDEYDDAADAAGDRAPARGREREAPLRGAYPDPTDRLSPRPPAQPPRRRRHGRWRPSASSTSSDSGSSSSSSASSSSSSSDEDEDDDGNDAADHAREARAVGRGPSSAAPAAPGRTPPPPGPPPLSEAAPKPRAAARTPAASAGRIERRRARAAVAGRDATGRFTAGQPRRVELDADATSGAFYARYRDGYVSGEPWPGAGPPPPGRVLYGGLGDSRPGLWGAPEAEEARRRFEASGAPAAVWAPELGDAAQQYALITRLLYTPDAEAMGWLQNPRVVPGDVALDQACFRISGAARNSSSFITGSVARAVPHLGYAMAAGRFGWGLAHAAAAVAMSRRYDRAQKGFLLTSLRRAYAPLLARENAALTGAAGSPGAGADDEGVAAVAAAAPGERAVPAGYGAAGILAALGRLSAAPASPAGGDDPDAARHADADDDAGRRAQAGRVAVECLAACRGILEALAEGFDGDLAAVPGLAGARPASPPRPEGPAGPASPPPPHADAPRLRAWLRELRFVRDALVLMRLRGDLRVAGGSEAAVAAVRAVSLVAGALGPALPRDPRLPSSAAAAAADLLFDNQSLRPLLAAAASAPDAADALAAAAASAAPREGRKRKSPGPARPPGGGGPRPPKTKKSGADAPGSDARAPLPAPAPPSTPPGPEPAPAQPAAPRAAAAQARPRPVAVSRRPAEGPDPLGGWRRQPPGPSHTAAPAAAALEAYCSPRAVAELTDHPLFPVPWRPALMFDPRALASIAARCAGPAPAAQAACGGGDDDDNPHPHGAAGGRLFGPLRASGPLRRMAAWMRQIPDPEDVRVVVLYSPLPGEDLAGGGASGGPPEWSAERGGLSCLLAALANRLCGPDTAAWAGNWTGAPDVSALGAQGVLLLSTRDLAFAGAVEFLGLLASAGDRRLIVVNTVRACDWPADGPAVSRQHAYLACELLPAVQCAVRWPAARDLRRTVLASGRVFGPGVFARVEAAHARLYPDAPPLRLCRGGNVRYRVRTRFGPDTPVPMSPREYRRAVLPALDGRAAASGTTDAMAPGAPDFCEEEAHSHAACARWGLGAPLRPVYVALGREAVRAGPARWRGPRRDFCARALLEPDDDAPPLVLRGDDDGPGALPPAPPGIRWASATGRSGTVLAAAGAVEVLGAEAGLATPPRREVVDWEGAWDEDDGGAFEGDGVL

Question: Which binding signal (% protein in complex fraction) [1] does the source give for “GACAGATCGTTTAGTGAACCGTACACGA (double strand) [28 bp crs DNA]” here?
Answer: 98

B1: C-DOTC (dsDNA)
DNA 1: GACAGATCGTTTAGTGAACCGTACACGA
DNA 2: TCGTGTACGGTTCACTAAACGATCTGTC
modifications: PS at bonds marked * G*ACAGATCGTT*TAGTGAACC*GTACACG*A / T*CGTGTAC*GGTTCACTA*AACGATCTGT*C
Question: Which IC50 [2] does the source give for B1 here?
Answer: < 1 nM

B2: C-DOTH (dsDNA)
DNA 1: CCGAGGACGCCCCGATCGTCCACACGGAG
DNA 2: CTCCGTGTGGACGATCGGGGCGTCCTCGG
modifications: PS at bonds marked * CCG*AGGAC*GCCCCGATC*GTCCACACG*GAG / CTC*CGTGTGGAC*GATCGGGGC*GTCCT*CGG
Question: Which IC50 [3] does the source give for B2 here?
Answer: < 1 nM
